The assay addresses Human CSL spanning residues 25-449 (human, UniProt Q06330 25-449). In words: ITC.

A value given as a limit tells only on which side of the number the result lay.

Chain of Human CSL spanning residues 25-449 (Q06330 25-449): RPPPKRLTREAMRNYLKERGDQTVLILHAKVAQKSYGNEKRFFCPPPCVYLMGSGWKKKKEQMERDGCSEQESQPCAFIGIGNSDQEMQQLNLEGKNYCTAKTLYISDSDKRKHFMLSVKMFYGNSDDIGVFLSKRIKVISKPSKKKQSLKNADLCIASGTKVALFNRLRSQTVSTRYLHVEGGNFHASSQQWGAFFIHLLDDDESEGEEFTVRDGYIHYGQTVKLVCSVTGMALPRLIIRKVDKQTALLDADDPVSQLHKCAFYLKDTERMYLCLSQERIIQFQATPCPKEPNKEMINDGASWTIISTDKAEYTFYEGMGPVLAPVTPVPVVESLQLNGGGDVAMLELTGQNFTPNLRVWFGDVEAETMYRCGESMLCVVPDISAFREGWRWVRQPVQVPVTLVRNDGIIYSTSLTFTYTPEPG

B1: Notch2 RAMANK (domain or fragment, human, UniProt Q04721 1699-2076, looked up)
chain: MAKRKRKHGSLWLPEGFTLRRDASNHKRREPVGQDAVGLKNLSVQVSEANLIGTGTSEHWVDDEGPQPKKVKAEDEALLSEEDDPIDRRPWTQQHLEAADIRRTPSLALTPPQAEQEVDVLDVNVRGPDGCTPLMLASLRGGSSDLSDEDEDAEDSSANIITDLVYQGASLQAQTDRTGEMALHLAARYSRADAAKRLLDAGADANAQDNMGRCPLHAAVAADAQGVFQILIRNRVTDLDARMNDGTTPLILAARLAVEGMVAELINCQADVNAVDDHGKSALHWAAAVNNVEATLLLLKNGANRDMQDNKEETPLFLAAREGSYEAAKILLDHFANRDITDHMDRLPRDVARDRMHHDIVRLLDEYNVTPSPPGTVL
For orientation: Kd means the free concentration of one partner at which half of the binding sites on the other are occupied at equilibrium, for simple one-to-one binding. In the case of B1, the Kd is ≤ 100 nM.

B2: Notch4 RAMANK (domain or fragment, human, UniProt Q99466 1472-1833, looked up)
chain: RRRRREHGALWLPPGFTRRPRTQSAPHRRRPPLGEDSIGLKALKPKAEVDEDGVVMCSGPEEGEEVGQAEETGPPSTCQLWSLSGGCGALPQAAMLTPPQESEMEAPDLDTRGPDGVTPLMSAVCCGEVQSGTFQGAWLGCPEPWEPLLDGGACPQAHTVGTGETPLHLAARFSRPTAARRLLEAGANPNQPDRAGRTPLHAAVAADAREVCQLLLRSRQTAVDARTEDGTTPLMLAARLAVEDLVEELIAAQADVGARDKWGKTALHWAAAVNNARAARSLLQAGADKDAQDNREQTPLFLAAREGAVEVAQLLLGLGAARELRDQAGLAPADVAHQRNHWDLLTLLEGAGPPEARHKATP
Regarding B2, the Kd was ≤ 100 nM.

B3: Notch3 RAMANK (domain or fragment, human, UniProt Q9UM47 1663-2038, looked up)
chain: MVARRKREHSTLWFPEGFSLHKDVASGHKGRREPVGQDALGMKNMAKGESLMGEVATDWMDTECPEAKRLKVEEPGMGAEEAVDCRQWTQHHLVAADIRVAPAMALTPPQGDADADGMDVNVRGPDGFTPLMLASFCGGALEPMPTEEDEADDTSASIISDLICQGAQLGARTDRTGETALHLAARYARADAAKRLLDAGADTNAQDHSGRTPLHTAVTADAQGVFQILIRNRSTDLDARMADGSTALILAARLAVEGMVEELIASHADVNAVDELGKSALHWAAAVNNVEATLALLKNGANKDMQDSKEETPLFLAAREGSYEAAKLLLDHFANREITDHLDRLPRDVAQERLHQDIVRLLDQPSGPRSPPGPHG
For B3, the Kd was ≤ 100 nM.

B4: Notch1 RAMANK (domain or fragment, human, UniProt P46531 1758-2127, looked up)
chain: RKRRRQHGQLWFPEGFKVSEASKKKRREPLGEDSVGLKPLKNASDGALMDDNQNEWGDEDLETKKFRFEEPVVLPDLDDQTDHRQWTQQHLDAADLRMSAMAPTPPQGEVDADCMDVNVRGPDGFTPLMIASCSGGGLETGNSEEEEDAPAVISDFIYQGASLHNQTDRTGETALHLAARYSRSDAAKRLLEASADANIQDNMGRTPLHAAVSADAQGVFQILIRNRATDLDARMHDGTTPLILAARLAVEGMLEDLINSHADVNAVDDLGKSALHWAAAVNNVDAAVVLLKNGANKDMQNNREETPLFLAAREGSYETAKVLLDHFANRDITDHMDRLPRDIAQERMHHDIVRLLDEYNLVRSPQLHGA
Take B4: the Kd was ≤ 100 nM.

Values taken from paper doi:10.1101/2023.09.15.557970 (bioRxiv, 2023).
